Structures can show the parent of a compound that is named as a salt.
Tests used:
Assay type in all cases: in vivo, Varicella zoster virus
[1] = test system: gE antigen; assay: Mice immunized with gE and liposomal adjuvant (Example 1): gE-specific total IgG titers
Method: (§1) The impact of TQL-1055 free acid (Compound I-4 free acid) on antibody titers induced by gE antigen was tested. Mice were immunized with gE (5 mcg) alone, gE (5 mcg) with blank liposomes, gE (5 mcg) with liposomes containing PHAD (7.5 mcg), gE (5 mcg) with liposomes containing PHAD (7.5 mcg) and TQL-1055 free acid (four groups: 5 mcg, 15 mcg, 30 mcg, 50 mcg), and gE (5 mcg) with liposomes containing MPL® (7.5 mcg) and QS-21 (5 mcg). Mice were immunized at Day 0 and Day 14. Groups were bled at Day 14 (post Dose 1) and Day 28 (post Dose 2) for serum analysis for anti-gE specific antibody response.
(§2) Log 10 transformed GMT were compared using One-way ANOVA. Groupwise comparisons were made and p-values adjusted for multiple comparisons with Tukey's post-hoc test. Groups 1 and 2 were excluded from the analysis. Family-wise α=0.05.

[2] = test system: gE antigen; assay: Mice immunized with gE and liposomal adjuvant (Example 1): gE-specific total IgG1 titers
Method: as §1, §2

[3] = test system: gE antigen; assay: Mice immunized with gE and liposomal adjuvant (Example 1): gE-specific total IgG2c titers; settings: post dose 1, 50 mcg TQL-1055 free acid with PHAD liposomes
Method: as §1, §2

[4] = test system: gE antigen; assay: Mice immunized with gE, TQL-1055 choline salt with or without PHAD liposomes (Example 2): anti-gE IgG endpoint titers
Method: The impact of TQL-1055 choline salt (Compound I-4 choline salt) on antibody titers induced by gE antigen was tested. Mice were immunized with gE (5 mcg) alone, gE (5 mcg) with liposomes containing PHAD (5 mcg), gE (5 mcg) with liposomes containing PHAD (5 mcg) and TQL-1055 choline salt (five groups: 5 mcg, 10 mcg, 20 mcg, 40 mcg, 80 mcg), and gE (5 mcg) with TQL-1055 choline salt (five groups: 5 mcg, 10 mcg, 20 mcg, 40 mcg, 80 mcg). Mice were immunized at Day 0 and Day 14. Groups were bled at Day 13 (post Dose 1) and Day 28 (post Dose 2) for serum analysis.

[5] = test system: gE antigen; assay: Mice immunized with gE, oil-in-water emulsion (L2), TQL-1055 and PHAD liposomes (Example 3): anti-gE IgG endpoint titers; settings: mice immunized Day 0 and Day 14
Method: The impact of an oil-in-water emulsion containing TQL-1055 free acid (Compound I-4 free acid), TQL-1055 choline salt (Compound I-4 choline salt), PHAD liposomes, and combinations thereof on antibody titers induced by gE antigen was tested. Mice were immunized with PBS alone, gE (5 mcg) alone, gE (5 mcg) in an oil-in-water emulsion (L2), gE (5 mcg) and TQL-1055 choline salt (three groups: 5 mcg, 30 mcg, 100 mcg), gE (5 mcg) in an oil-in-water emulsion (L2) with TQL-1055 free acid (three groups: 5 mcg, 30 mcg, 100 mcg), gE (5 mcg) in an oil-in-water emulsion (L2) with TQL-1055 free acid (three groups: 5 mcg, 30 mcg, 100 mcg) and PHAD liposomes (20 mcg), and gE (5 mcg) with PHAD liposomes (20 mcg). Mice were immunized at Day 0 and Day 14. Groups were bled at Day 13 (post Dose 1) and Day 28 (post Dose 2) for serum analysis.

[6] = mice immunized Day 0 and Day 14, serum Day 28 (post Dose 2)

## CC1O[C@@H](OC2C(O)[C@@H](NC(=O)CCCCCCCCCCC(=O)O)C(CO)O[C@H]2OC(=O)[C@]23CCC(C)(C)CC2C2=CCC4C5(C)CC[C@H](O)C(C)(C=O)C5CCC4(C)[C@]2(C)CC3O)C(O)C(O)[C@H]1O[C@@H]1OC[C@@H](O)C(O)C1O (stereo partly shown) [TQL-1055 free acid]
[1]; mice, post dose 2, 50 mcg TQL-1055 free acid with PHAD liposomes, not statistically significant
  gE-specific total IgG GMT compared to Group 7: trended higher
[2]; mice, post dose 1, 50 mcg TQL-1055 free acid with PHAD liposomes
  gE-specific IgG1 GMT compared to Group 7: significantly higher
[3]
  gE-specific IgG2c GMT compared to Group 7: significantly higher

## CC1O[C@@H](OC2C(O)[C@@H](NC(=O)CCCCCCCCCCC(=O)O)C(CO)O[C@H]2OC(=O)[C@]23CCC(C)(C)CC2C2=CCC4C5(C)CC[C@H](O)C(C)(C=O)C5CCC4(C)[C@]2(C)CC3O)C(O)C(O)[C@H]1O[C@@H]1OC[C@@H](O)C(O)C1O (stereo partly shown) [TQL-1055 choline salt]
[4]; after the first dose
  titers compared to groups including TQL-1055 free acid (Example 1): trend to higher titers
[4]; after the second dose
  titers compared to groups including TQL-1055 free acid (Example 1): trend to higher titers

B1: 5 mcg gE alone: VZV glycoprotein E (gE) antigen, 5 mcg, without adjuvant (protein, UniProt P09259 31-623, looked up)
Envelope glycoprotein E: SVLRYDDFHTDEDKLDTNSVYEPYYHSDHAESSWVNRGESSRKAYDHNSPYIWPRNDYDGFLENAHEHHGVYNQGRGIDSGERLMQPTQMSAQEDLGDDTGIHVIPTLNGDDRHKIVNVDQRQYGDVFKGDLNPKPQGQRLIEVSVEENHPFTLRAPIQRIYGVRYTETWSFLPSLTCTGDAAPAIQHICLKHTTCFQDVVVDVDCAENTKEDQLAEISYRFQGKKEADQPWIVVNTSTLFDELELDPPEIEPGVLKVLRTEKQYLGVYIWNMRGSDGTSTYATFLVTWKGDEKTRNPTPAVTPQPRGAEFHMWNYHSHVFSVGDTFSLAMHLQYKIHEAPFDLLLEWLYVPIDPTCQPMRLYSTCLYHPNAPQCLSHMNSGCTFTSPHLAQRVASTVYQNCEHADNYTAYCLGISHMEPSFGLILHDGGTTLKFVDTPESLSGLYVFVVYFNGHVEAVAYTVVSTVDHFVNAIEERGFPPTAGQPPATTKPKEITPVNPGTSPLLRYAAWTGGLAAVVLLCLVIFLICTAKRMRVKAYRVDKSPYNQSMYYAGLPVDDFEDSESTDTEEEFGNAIGGSHGGSSYTVYIDKTR
[1]; [6]
  gE-specific total IgG titers post dose 2, GMT: 949.8
[5]; serum Day 13 (post Dose 1)
  gE-specific total IgG titers post dose 1, Geometric mean: 138.0
[5]; serum Day 28 (post Dose 2)
  gE-specific total IgG titers post dose 2, Geometric mean: 5012
[2]; [6]
  gE-specific total IgG1 titers post dose 2, GMT: 793.1
[4]; Day 13 (post Dose 1), with 5 mcg PHAD in liposomes
  Day 13 Anti-gE GMT titer, 5 mcg PHAD in liposomes: 19,037
[4]; Day 13 (post Dose 1), without PHAD liposomes
  Day 13 Anti-gE GMT titer, without PHAD liposomes: 135
[4]; Day 28 (post Dose 2), with 5 mcg PHAD in liposomes
  Day 28 Anti-gE GMT titer, 5 mcg PHAD in liposomes: 689,865
[4]; Day 28 (post Dose 2), without PHAD liposomes
  Day 28 Anti-gE GMT titer, without PHAD liposomes: 12,311

Reference: patent US12673101B2, “Varicella zoster” (ADJUVANCE TECHNOLOGIES, INC., priority 2019, dated 2026)
